{"source": "paper PMC12637829", "about": "(Research Square, 2025)", "proteins": {"B1": {"name": "Sup35NM S17R (domain or fragment, yeast, UniProt P05453 1-253, looked up)", "chain": "MSDSNQGNNQQNYQQYRQNGNQQQGNNRYQGYQAYNAQAQPAGGYYQNYQGYSGYQQGGYQQYNPDAGYQQQYNPQGGYQQYNPQGGYQQQFNPQGGRGNYKNFNYNNNLQGYQAGFQPQSQGMSLNDFQKQQKQAAPKPKKTLKLVSSSGIKLANATKKVGTKPAESDKKEEEKSAETKEPTKEPTKVEEPVKKEEKPVQTEEKTEEKSELPKVEDLKISESTHNTNNANVTSADALIKEQEEEVDDEVVND", "notes": "Sup35, yeast translation termination factor; NM domain = N-terminal prion domain (N or PrD) plus the polar M region (M124-D253), with S17R; In the fibril, many copies are stacked along the axis; also called S17R mutant; S17R4 (fibrils formed at 4°C); not shown: 7x histidine, C-terminal, kept"}}, "target": "the molecule itself", "experiment": "cryo-EM structure; amyloid fibrils polymerised from monomer at 4°C with seeds (5% mol/mol) in 5 mM KPi, 150 mM NaCl, pH 7.4, without agitation; third-generation (G3) fibrils"}
{"protein": "B1", "values": [{"measurement": "binding result", "value": "binds"}]}
